This is an account of results in PMC7904846, “Nanobody-based chimeric antigen receptor T cells designed by CRISPR/Cas9 technology for solid tumor immunotherapy” (Signal Transduction and Targeted Therapy, 2021).

This experiment has as its target T1, CD105 (Homo sapiens, UniProt P17813).
T1 construct: CD105 (endoglin), human; also called endoglin; CD105 protein
Description: SPR; CD105 Nbs (10 ug/mL) immobilised on PlexArray Nanocapture Sensor Chips; different concentrations injected at 3.0 uL/s; PlexArray HT system; regeneration with 0.05 mol/L NaOH; 25 °C; triplicate. Conditions: both partners purified. (In general: Surface plasmon resonance follows binding to a sensor surface in real time, without labels.)

T1 sequence (P17813 26-658): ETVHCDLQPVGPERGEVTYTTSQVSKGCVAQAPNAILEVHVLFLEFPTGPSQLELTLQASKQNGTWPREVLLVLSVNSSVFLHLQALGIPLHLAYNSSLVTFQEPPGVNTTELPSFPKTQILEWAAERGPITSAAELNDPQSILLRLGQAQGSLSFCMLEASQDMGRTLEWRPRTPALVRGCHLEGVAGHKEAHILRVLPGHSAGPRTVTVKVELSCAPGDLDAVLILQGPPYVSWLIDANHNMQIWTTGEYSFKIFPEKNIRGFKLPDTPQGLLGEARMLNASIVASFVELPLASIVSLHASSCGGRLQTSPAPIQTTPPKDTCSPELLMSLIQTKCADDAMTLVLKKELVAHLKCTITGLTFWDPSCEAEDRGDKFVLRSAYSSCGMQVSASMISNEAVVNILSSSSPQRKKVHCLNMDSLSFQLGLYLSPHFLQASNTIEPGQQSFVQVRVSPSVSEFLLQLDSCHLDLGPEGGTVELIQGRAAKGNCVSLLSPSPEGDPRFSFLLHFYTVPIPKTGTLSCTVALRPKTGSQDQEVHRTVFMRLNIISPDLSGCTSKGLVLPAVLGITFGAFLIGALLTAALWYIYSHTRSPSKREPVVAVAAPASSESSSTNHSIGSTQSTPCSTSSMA

B1: Nb C184 (VHH)
VHH: QVQLQESGGGSVQAGGSLRLSCVASGYTVSRGYMGWFRQAPGKEREAVAAIRTGSGSTYYADSVKGRFTISQDNAKNTVYLQMNSLKHEDTGMYYCAASLWYGGNWQSWGSYNYWGQGTQVTVSS
notes: camel VHH selected by phage display against CD105; Cloned in phagemid pMECS, which gives C-terminal hemagglutinin-His6-tagged Nbs; In the CAR the same VHH is joined to the CD8a hinge and transmembrane domain, 4-1BB and CD3zeta; also called anti-CD105 Nanobody (C184); CD105 Nb
Consider B1, for which the binding result is “binds”.
